“And” between values parts separate entries of the source, which are not always exact repeats. Equal entries are not always repeated.
Legend:
Assay in all cases: cell-based or functional assay
[1] = target: SARS-COV-2 Gamma full-length spike (SARS-CoV-2 Gamma)
[2] = target: SARS-COV-2 Delta full-length spike (SARS-CoV-2 Delta)
[3] = target: SARS-COV-2 Alpha full-length spike (SARS-CoV-2 Alpha)
[4] = target: SARS-COV-2 Beta full-length spike (SARS-CoV-2 Beta)

Measured: pseudovirus neutralization NT50

B1: Antibody 11 (SS6V11-E7) (antibody, V domains shown)
VH: QVQLQESGPGLVKPSETLSLTCTVSGGFIGPHYWSWVRQPPGKGLEWIGYIYISGSTNYNPSLKSRLTISVDMSKSQFSLTLSSATAADTAVYYCARGGGYLETGPFEYWGQGTLVTVSS
VL: DIVMTQSPLSLPVTPGEPASISCRSSQSLLQNNGYNYLAWYLQKPGQSPQLLIYLSSTRASGVPDRFSGSGSGTDFTLKISRVEAEDVGVYYCMQSLQIPGTFGQGTRLEIK
< 10 ng/ml and < 0.067 nM: all assays above

B2: Antibody 13 (SS6V13-F1) (antibody, V domains shown)
VH: QVQLQESGPGLVKPSETLSLTCSVSGVSILGSYWGWIRQPPGTGLQWIGYIYFSENTNYNPSLQSRVTMSLDTSKNLLSLKLSSVTAADTAVYYCARGGGYLETGPFDSWGQGTLVTVSS
VL: DIVMTQSPLSLPVTPGEPASISCRSSQGLVQSNGYNYLAWYLQKPGQSPQLLIYLGSNRASGVPDRFSGSGSGTDFTLKISRVEAEDVGVYYCMQGLQTPGTFGQGTRLEIK
< 10 ng/ml and < 0.067 nM: all assays above

B3: Antibody 20 (SS6V20-F5) (antibody, V domains shown)
VH: QVQLQESGPGLVKPSETLSLTCTVSGGSIIGYYWSWIRQPPGKGLEWIGYIYFSANTNYNPSLKSRVTMSVDMSKKQFSLKLRSVTAADTAVYYCARGGGYLETGPLDFWGQGILVTVSS
VL: DIVMTQSPLSLPVTPGEPASISCRSSQSLMQLNGYNYLAWYLQRPGQSPQLLIYLGSTRASGVPDRFSGSGSGTDFTLKITRVEAEDVGVYYCMQGLQIPGTFGQGTRLEIK
< 10 ng/ml and < 0.067 nM: all assays above

— US20240254204A1 (NATIONAL UNIVERSITY OF SINGAPORE, published 2024)
